Assay results taken from the supplement of paper PMC12042874.
± gives the uncertainty stated by the source.

Experiment: amyloid nucleation score (Sup35N fusion, yeast selection) (log enrichment); library NNK2; higher = more nucleation; inactive = no reads after selection
Summary of the method: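 Output and input plasmid inserts were sequenced by Illumina after psi-negative yeast carrying Sup35N fused to peptides of 20 random codons had been induced 24 hours with 100 μM copper sulfate and grown 7 days at 30°C on medium lacking adenine and uracil. The nucleation score is the DiMSum log enrichment of output over input reads, centred on the mode score of non-aggregating sequences. Sequences with under 100 input reads were excluded.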
Work on NRVLVLAVGHEKFIAKMRLT yielded an amyloid nucleation score of 1.51 ± 0.46. For MMDRV, the amyloid nucleation score was -0.092 ± 0.65. Work on HLSTSGYVAFLKHLTLCKVL yielded an amyloid nucleation score of -0.347 ± 1.1. VRSVLVRKGTWARCTRMVAM showed an amyloid nucleation score of 1.05 ± 0.56. Substance FGNRRSCHDIRSWIDRYLVR has an amyloid nucleation score of 1.69 ± 0.52. SPFNRLHY showed an amyloid nucleation score of -0.101 ± 1.1. Substance LTDNS has an amyloid nucleation score of 0.147 ± 0.61. In the case of PSIWSLDGSYFCSADENCKR, the amyloid nucleation score is reported as “inactive”. With FYLNRKRVYLSDGCRAFR the amyloid nucleation score was 0.252 ± 0.51. Substance MCVLECFDAGSGYLR has an amyloid nucleation score of 1.06 ± 0.59. With TSRLNMVTSHVLKWCDNRSR the amyloid nucleation score was -0.516 ± 0.5. Work on ICSSYALGQSTETG yielded an amyloid nucleation score of -0.559 ± 0.76. In the case of KRTWRFFYRL, the amyloid nucleation score is reported as “inactive”. Substance FSSFVNREKMFIHFSNVVYF has an amyloid nucleation score of 1.44 ± 0.1. For GTVFCYLM, the amyloid nucleation score was -1.05 ± 1. Substance LIVWT has an amyloid nucleation score of 0.593 ± 0.54. LRSKTDAPDGRFLAWSSMLC gave an amyloid nucleation score of 0.458 ± 0.25. In the case of MYRVLAICNRTVRKG, the amyloid nucleation score is reported as -0.562 ± 0.61. With VWPLNYYGWKTNMSSCFHST the amyloid nucleation score was -1.1 ± 1.1. DTLCYNRMWFLPGLKMDLGG showed an amyloid nucleation score of 7.62 ± 0.054. GWFFDFFITCPVSHSTFSKL gave an amyloid nucleation score of 2.19 ± 0.14. For DIIVYM, the amyloid nucleation score was “inactive”. Work on QVLLFQWLSGDYQMIKMMRW yielded an amyloid nucleation score of -0.207 ± 0.45. DKSIR showed an amyloid nucleation score of 0.239 ± 0.33. Work on FIDFGVVVSWVL yielded an amyloid nucleation score of 0.985 ± 0.3. For EEWNRRANMGFLNYFETHGG, the amyloid nucleation score was -1.14 ± 1. In the case of FDLNYPSVSIIGKVLCSGPV, the amyloid nucleation score is reported as “inactive”. In the case of VLTSFGLW, the amyloid nucleation score is reported as 5.206 ± 0.037. Substance WSLLV has an amyloid nucleation score of 0.478 ± 0.8. Substance AAPVMH has an amyloid nucleation score of -0.354 ± 0.76. Substance RLYSFCGIN has an amyloid nucleation score of 1.68 ± 0.093. With HNVYMVFYFAFFSPFMIRYI the amyloid nucleation score was 3.44 ± 0.088. ERVDVI gave an amyloid nucleation score of -0.364 ± 0.32. VIAKDLMHMLPLYM gave an amyloid nucleation score of 0.37 ± 0.25. With HQLPVHEPYEYWLQQGSNCP the amyloid nucleation score was 0.353 ± 0.56. SVVGSYYI showed an amyloid nucleation score of -0.878 ± 0.36. Substance KSCYIAV has an amyloid nucleation score of -0.066 ± 0.45. CCDVRS gave an amyloid nucleation score of 0.558 ± 0.51. For YPVLN, the amyloid nucleation score was -0.834 ± 0.49. For QLFVMPCMNSFEGRKRNCFS, the amyloid nucleation score was -0.836 ± 0.48. Work on FLLTKSRCLEVFA yielded an amyloid nucleation score of 4.68 ± 0.065. LAMLRS gave an amyloid nucleation score of 1.17 ± 0.34. Work on MCPNGPAVIGMLFRLHTLFK yielded an amyloid nucleation score of 0.168 ± 0.35. In the case of IWSQW, the amyloid nucleation score is reported as -0.134 ± 1.1. VGIGVAERCDSRWLL showed an amyloid nucleation score of 0.886 ± 0.3. In the case of THYTDIIFFQEGLY, the amyloid nucleation score is reported as “inactive”. For MPPFGNDCTDREDVCMGRFV, the amyloid nucleation score was “inactive”. Substance LTNNHYIKPFRSRIRVMVMY has an amyloid nucleation score of 4.79 ± 0.069. In the case of KYGAPS, the amyloid nucleation score is reported as -0.029 ± 1.1. Work on HRNNQMQCVFAFLW yielded an amyloid nucleation score of 7.199 ± 0.053. KVFLFIFGLLTESPGCDQSP showed an amyloid nucleation score of -0.536 ± 0.4. SRVSLHNES showed an amyloid nucleation score of -0.453 ± 1.1. For WHDNSSNGTGEGNFVRPVPV, the amyloid nucleation score was 1.13 ± 0.11. Substance SYFLGFVRYAVILSGMLLST has an amyloid nucleation score of -0.281 ± 0.56. FCSVCDRL showed an amyloid nucleation score of 0.168 ± 0.23. For TCLMDGSTCTRFGGPLEPMC, the amyloid nucleation score was 0.028 ± 0.79. YTMMRFGPPPFETFVVKYGL gave an amyloid nucleation score of 1.42 ± 0.35. For GWMHFVALKGFSNHGRAGSG, the amyloid nucleation score was 0.448 ± 0.57. For HQAWSCSTVGFDLAVVNFAD, the amyloid nucleation score was -0.197 ± 0.43. In the case of NTKYRRFFFNTVRLLHM, the amyloid nucleation score is reported as -0.28 ± 0.79. In the case of QTSLSTMMYLPCH, the amyloid nucleation score is reported as 0.7 ± 0.49. Work on HVVMFS yielded an amyloid nucleation score of -0.38 ± 0.76. Substance SCLMIIPFVFMFEHYTFEEG has an amyloid nucleation score of 7.71 ± 0.082. Work on TVAGYCVPSSSCRTGTFTVC yielded an amyloid nucleation score of -0.567 ± 0.33. In the case of KLAVCLCGSKHNDLGYRGDP, the amyloid nucleation score is reported as “inactive”. Substance YSFNLCNS has an amyloid nucleation score of -0.013 ± 0.45. Work on SICRPIMSESWIASPCVLVG yielded an amyloid nucleation score of -0.012 ± 0.24. Work on VPGDDPSIVTVMQMYGFSLI yielded an amyloid nucleation score of -0.385 ± 0.64. IADIVEHCCAVRVCALGGLM showed an amyloid nucleation score of 0.393 ± 0.8. For FNHLRSARILPGFFSFSRFK, the amyloid nucleation score was -1.35 ± 0.54. For VLNGGRGVIRLYRVFAGKRF, the amyloid nucleation score was -1.06 ± 0.47. AGAHVVKAIHFSLYGNEGLT gave an amyloid nucleation score of 0.6 ± 0.74. In the case of YDEYF, the amyloid nucleation score is reported as “inactive”. IDILWVRVNAFLSVVEIRSN showed an amyloid nucleation score of 0.949 ± 0.15. For GLEFFLGYGYIAARHWVSGS, the amyloid nucleation score was 1.59 ± 0.13. Work on NGLYCFEVLLGSSAFPWTG yielded an amyloid nucleation score of 3.63 ± 0.082. With YPEADALLRFGVMDIHN the amyloid nucleation score was 0.085 ± 0.36. Work on RQLHLVLNRVGWMLWYTH yielded an amyloid nucleation score of 0.684 ± 0.26. With CRIGA the amyloid nucleation score was -0.252 ± 0.28. With MFKDNLLIVLFMLLMGLMRW the amyloid nucleation score was 3.45 ± 0.069. For FIAFFSWFFGWWRKMQAQAL, the amyloid nucleation score was “inactive”. Work on LHIKW yielded an amyloid nucleation score of 5.728 ± 0.033. For LYPLCYGL, the amyloid nucleation score was -0.829 ± 1.1. SLKTVAFHSEMFFCSTLVDM gave an amyloid nucleation score of 0.153 ± 0.8. In the case of HPTLEPGKHYLRVSKSNTSR, the amyloid nucleation score is reported as 0.404 ± 0.26. For LCQNKTMTIGRFKIGHKWYP, the amyloid nucleation score was 0.004 ± 1.1. For LEPGAFRSIVFRIND, the amyloid nucleation score was 0.961 ± 0.48. In the case of VFVARITSRTIIVLNESGFE, the amyloid nucleation score is reported as 5.21 ± 0.089.
